From the supplement of paper PMC11246515
± gives the standard deviation of the averaged measurements.

Assay: total protein half-life in vivo (active degradation + dilution); higher = more stable protein
[1] = E. coli NCM3722 delta-clpP delta-lon delta-hslV, growth: N-lim chemostat, doubling time 6 h
[2] = E. coli NCM3722 delta-clpP, growth: N-lim chemostat, doubling time 6 h
[3] = E. coli NCM3722 delta-hslV, growth: N-lim chemostat, doubling time 6 h
[4] = E. coli NCM3722 delta-lon, growth: N-lim chemostat, doubling time 6 h
[5] = E. coli NCM3722 delta-smpB, growth: N-lim chemostat, doubling time 6 h
[6] = wild type E. coli NCM3722, growth: C-lim chemostat, doubling time 3 h
[7] = wild type E. coli NCM3722, growth: C-lim chemostat, doubling time 6 h
[8] = wild type E. coli NCM3722, growth: C-lim chemostat, doubling time 12 h
[9] = wild type E. coli NCM3722, growth: N-lim chemostat, doubling time 6 h
[10] = wild type E. coli NCM3722, growth: N-lim chemostat, doubling time 12 h
[11] = wild type E. coli NCM3722, growth: P-lim chemostat, doubling time 6 h
[12] = wild type E. coli NCM3722, growth: P-lim chemostat, doubling time 12 h

Row | Sequence | total protein half-life in vivo [1] | total protein half-life in vivo [2] | total protein half-life in vivo [3] | total protein half-life in vivo [4] | total protein half-life in vivo [5] | total protein half-life in vivo [6] | total protein half-life in vivo [7] | total protein half-life in vivo [8] | total protein half-life in vivo [9] | total protein half-life in vivo [10] | total protein half-life in vivo [11] | total protein half-life in vivo [12]
1 | MANNTTGFTRIIKAAGYSWKGLRAAWINEAAFRQEGVAVLLAVVIACWLDVDAITRVLLISSVMLVMIVEILNSAIEAVVDRIGSEYHELSGRAKDMGSAAVLIAIIVAVITWCILLWSHFG [P0ABN1] | 6.58 ± 0.097 h | 6.7 ± 1.4 h | 5.79 ± 0.99 h | 6.03 ± 0.49 h | 6.13 ± 0.91 h | 3.24 ± 0.045 h | 6.21 ± 0.12 h | 13.3 ± 2.6 h | 5.93 ± 0.34 h | 13.7 ± 3.1 h | 5.54 ± 0.21 h | 11.3 ± 0.31 h
2 | MANPEQLEEQREETRLIIEELLEDGSDPDALYTIEHHLSADDLETLEKAAVEAFKLGYEVTDPEELEVEDGDIVICCDILSECALNADLIDAQVEQLMTLAEKFDVEYDGWGTYFEDPNGEDGDDEDFVDEDDDGVRH [P0AF90] | 5.62 ± 0.39 h | 4 ± 0.52 h | 3.94 ± 0.18 h | 5.36 ± 0.26 h | 3.73 ± 0.12 h | 2.08 h | 5.51 ± 1.6 h | 8.63 ± 2.2 h | 4.14 h | 7.72 ± 1.9 h | 2.61 ± 0.039 h | 6.57 ± 0.075 h
3 | MANRMILNETAWFGRGAVGALTDEVKRRGYQKALIVTDKTLVQCGVVAKVTDKMDAAGLAWAIYDGVVPNPTITVVKEGLGVFQNSGADYLIAIGGGSPQDTCKAIGIISNNPEFADVRSLEGLSPTNKPSVPILAIPTTAGTAAEVTINYVITDEEKRRKFVCVDPHDIPQVAFIDADMMDGMPPALKAATGVDALTHAIEGYITRGAWALTDALHIKAIEIIAGALRGSVAGDKDAGEEMALGQYVAGMGFSNVGLGLVHGMAHPLGAFYNTPHGVANAILLPHVMRYNADFTGEKYRDIARVMGVKVEGMSLEEARNAAVEAVFALNRDVGIPPHLRDVGVRKEDIPALAQAALDDVCTGGNPREATLEDIVELYHTAW [P0A9S1] | 4.47 ± 0.099 h | 3.35 ± 0.51 h | 3.392 ± 0.0085 h | 4.76 ± 0.29 h | 2.66 ± 0.051 h | 3.02 ± 0.11 h | 5.64 ± 0.23 h | 10.6 ± 0.27 h | 4.48 ± 1 h | 4.94 ± 0.27 h | 5.483 ± 0.014 h | 10.2 ± 0.13 h
4 | MANWQSIDELQDIASDLPRFIHALDELSRRLGLNITPLTADHISLRCHQNATAERWRRGFEQCGELLSENMINGRPICLFKLHEPVQVAHWQFSIVELPWPGEKRYPHEGWEHIEIVLPGDPETLNARALALLSDEGLSLPGISVKTSSPKGEHERLPNPTLAVTDGKTTIKFHPWSIEEIVASEQSA | 5.34 ± 1.4 h | 3.77 ± 0.15 h | 2.73 ± 0.29 h | 3.16 ± 0.24 h | 3.04 ± 0.023 h | 2.231 ± 0.0095 h | 3.62 ± 1.4 h | 5.25 ± 0.3 h | 3.3 h | 3.66 h | 3.83 h | 6.37 ± 1.2 h
5 | MAQFVYTMHRVGKVVPPKRHILKNISLSFFPGAKIGVLGLNGAGKSTLLRIMAGIDKDIEGEARPQPDIKIGYLPQEPQLNPEHTVRESIEEAVSEVVNALKRLDEVYALYADPDADFDKLAAEQGRLEEIIQAHDGHNLNVQLERAADALRLPDWDAKIANLSGGERRRVALCRLLLEKPDMLLLDEPTNHLDAESVAWLERFLHDFEGTVVAITHDRYFLDNVAGWILELDRGEGIPWEGNYSSWLEQKDQRLAQEASQEAARRKSIEKELEWVRQGTKGRQSKGKARLARFEELNSTEYQKRNETNELFIPPGPRLGDKVLEVSNLRKSYGDRLLIDDLSFSIPKGAIVGIIGPNGAGKSTLFRMISGQEQPDSGTITLGETVKLASVDQFRDSMDNSKTVWEEVSGGLDIMKIGNTEMPSRAYVGRFNFKGVDQGKRVGELSGGERGRLHLAKLLQVGGNMLLLDEPTNDLDIETLRALENALLEFPGCAMVISHDRWFLDRIATHILDYQDEGKVEFFEGNFTEYEEYKKRTLGADALEPKRIKYKRIAK [P0A9W3] | 4.99 ± 0.079 h | 5.16 ± 1.3 h | 4.696 ± 0.0076 h | 4.99 ± 0.28 h | 4.57 ± 0.13 h | 3.142 ± 0.022 h | 5.61 ± 0.25 h | 10.3 ± 0.59 h | 4.514 ± 0.025 h | 7.31 ± 0.33 h | 5.748 ± 0.023 h | 11.6 ± 0.28 h
6 | MAQGTLYIVSAPSGAGKSSLIQALLKTQPLYDTQVSVSHTTRQPRPGEVHGEHYFFVNHDEFKEMISRDAFLEHAEVFGNYYGTSREAIEQVLATGVDVFLDIDWQGAQQIRQKMPHARSIFILPPSKIELDRRLRGRGQDSEEVIAKRMAQAVAEMSHYAEYDYLIVNDDFDTALTDLKTIIRAERLRMSRQKQRHDALISKLLAD | 4.92 ± 0.11 h | 4.94 ± 0.094 h | 4.492 ± 0.0085 h | 4.85 ± 0.71 h | 4.493 ± 0.03 h | 2.78 ± 0.075 h | 6.12 ± 1.5 h | 8.87 ± 3.6 h | 5.11 ± 0.12 h | 8.324 ± 0.018 h | 5.66 ± 0.11 h | 11.8 ± 0.35 h
7 | MAQHTVYFPDAFLTQMREAMPSTLSFDDFLAACQRPLRRSIRVNTLKISVADFLQLTAPYGWTLTPIPWCEEGFWIERDNEDALPLGSTAEHLSGLFYIQEASSMLPVAALFADGNAPQRVMDVAAAPGSKTTQISARMNNEGAILANEFSASRVKVLHANISRCGISNVALTHFDGRVFGAAVPEMFDAILLDAPCSGEGVVRKDPDALKNWSPESNQEIAATQRELIDSAFHALRPGGTLVYSTCTLNQEENEAVCLWLKETYPDAVEFLPLGDLFPGANKALTEEGFLHVFPQIYDCEGFFVARLRKTQAIPALPAPKYKVGNFPFSPVKDREAGQIRQAATGVGLNWDENLRLWQRDKELWLFPVGIEALIGKVRFSRLGIKLAETHNKGYRWQHEAVIALASPDNMNAFELTPQEAEEWYRGRDVYPQAAPVADDVLVTFQHQPIGLAKRIGSRLKNSYPRELVRDGKLFTGNA | 4.91 ± 0.059 h | 4.53 ± 0.36 h | 4.4 ± 0.12 h | 5.21 ± 0.62 h | 4.38 ± 0.21 h | 2.99 ± 0.3 h | 5.79 ± 1.4 h | 9.34 ± 2.6 h | 4.63 ± 0.14 h | 8.3 ± 0.63 h | 4.78 ± 1.1 h | 9.91 ± 0.92 h
